pIC50: −log10 of the molar value. Starred links: 1 amine or outer side, 2 acyl side, 3 side chain; linkers in the order of their positions; H or OH if unused. Positions of bridges follow the written chain, without caps; N, C: chain ends. Non-standard residues stand in square brackets, D forms with d. Residues, ends and D or L forms follow the SMILES beside them. Chains are numbered I, II in the order given. *: point of attachment. X3 = NCCOCCOCCNC(=O)CN1CCN(CC(=O)NCCOCCOCCN[*:1])CCN(CC(=O)NCCOCCOCCN)CCN(CC(=O)NCCOCCOCCN[*:2])CC1; X2 = CC(C)C[C@H](N[*:1])[C@H](O)CC(=O)[*:2]; Sta = CC(C)C[C@H](N)[C@@H](O)CC(=O)O; Isovaleryl = CC(C)CC(=O)*
How the values were obtained:
[1] = T1 of contrast agent in DPBS; assay type: physicochemical; conditions: 0.2 mM in DPBS
Protocol: To explore the potential of cartilage targeting agents as practical MRI contrast agents for accurate diagnostic imaging, we investigated HHY-316Gd in vivo with healthy rats. As an essentially non-binding control, contrast agent HHY-341Gd (T1=1368±10 ms, 0.2 mM in DPBS) with the non-binding scrambled peptide sequence YRLGRW and acetylated amine groups was used as reference. MRI was performed using a 4.7 T Bruker BioSpec whole body MR imager. Male skeletally mature Lewis rats were anesthetized (by Isoflurane), fixed in supine position and both knees were placed within a transmitting/receiving wrist coil. […] In the HHY-316Gd applied knees there is a significant MRI signal enhancement of the articular and growth plate cartilages which consist principally of collagen II and proteoglycan. The signal intensity (SI) in the articular cartilage and growth plate increased 86% and 77% after 24 hours following administration of HHY-316Gd and increased 84% and 85% at 72 hours after intra-articular injection, respectively (FIGS. 6-11). […]
To assist histological examination of joint slices after termination of the study, we decided to co-administer a second probe, HHY-338 (T1=11493±27 ms, 0.2 mM in DPBS), containing a Cy5.5 moiety. […] Chondrophyte/osteophyte regions were examined in sections stained with safranin O/fast green and recorded using a Zeiss Miraxscan microscope (FIG. 12b).

[2] = Solubility in DMSO after lyophilization; assay type: physicochemical
Protocol: 1 equiv. […] DIPEA (10 λl, 60 μmol). The reaction mixture was stirred under argon at room temperature for 2 days. The solvent was directly purified by preparative HPLC to give HHY-328 (4.3 mg, Yield: 22.6%) as a white powder.

[3] = Solubility in phosphate buffer; assay type: physicochemical; conditions: phosphate buffer at pH 7.4; read-out: solubility
[4] = molecular target: T1, Cathepsin D (Homo sapiens, UniProt P07339); test: Cathepsin D enzyme assay; assay type: biochemical
T1 construct: purchased Biomol Se-199
T1 sequence (P07339 65-412): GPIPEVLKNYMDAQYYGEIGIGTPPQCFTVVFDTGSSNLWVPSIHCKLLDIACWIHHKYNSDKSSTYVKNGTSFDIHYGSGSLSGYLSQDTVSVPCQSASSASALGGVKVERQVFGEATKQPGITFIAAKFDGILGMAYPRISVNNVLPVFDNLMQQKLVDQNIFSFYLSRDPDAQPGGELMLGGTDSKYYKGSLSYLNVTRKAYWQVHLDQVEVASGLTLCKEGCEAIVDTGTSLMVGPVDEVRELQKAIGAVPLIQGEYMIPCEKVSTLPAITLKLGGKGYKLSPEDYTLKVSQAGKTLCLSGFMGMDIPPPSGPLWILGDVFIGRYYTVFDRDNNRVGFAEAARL
Protocol: For quantification of Cathepsin D inhibitory activity, an enzymatic assay was used that measures the turnover of a quenched, fluorescenctly-labeled, Cathepsin D-cleavable, peptide substrate over time.
Specifically, 13 ng of purified Cathepsin D enzyme (Biomol; Cat.No. Se-199) was administered per well of a 96 well plate, substance/inhibitor of interest was added and the mixture incubated for 10 min. at 37° C. Then, the enzymatic reaction was started by addition of fluorescenctly-labeled, Cathepsin D-Substrat ([…] (7-Methoxycoumarin-4-yl)-acetyl-Pro-Leu-Gly-Leu-(3 [2,4-dinitrophenyl]-L-2,3-diaminopropionyl)-Ala-Arg-NH2 (Bachem M-1895). The reaction volume amounts to 30 μl and contains 50 mM acetic acid, 200 mM NaCl and 0.003% Brij 35 and was adjusted to pH 4.5 with acetic acid. By cleavage of the peptide chain, the […] is released and the emission of fluorescence dye is measured using excitation/emission wavelengths ([…]) on a Tecan Spectrafluor Plus—instrument at 37° C. for 10 min. For the determination of the compound dose response, a 10 mM DMSO stock solution was diluted and tested in a ten-point, three-fold dilution series run in duplicate beginning at 30 μM final concentration. Data were analyzed using a four-parameter curve fit with a fixed minimum and maximum experimentally defined as the average positive and negative controls on each plate.

[5] = tested on: pig articular cartilage explants; test: Ex vivo GAG release model with pig articular cartilage explants; assay type: cell-based; conditions: explants pre-incubated with 1 μM inhibitor 24 h, then washed

Work on AcWYRGRL-DOTA-Cy5.5-[Gd3+] [HHY-338] yielded a T1 [1] of 11493 ± 27 ms.
For AcWYRGRL-DOTA-(Pepstatin A)3 [HHY-328], the “solubility in DMSO” value [2] was “only slightly soluble”.
With `CC(=O)N[C@@H](Cc1c[nH]c2ccccc12)C(=O)N[C@@H](Cc1ccc(O)cc1)C(=O)N[C@@H](CCCNC(=N)N)C(=O)NCC(=O)N[C@@H](CCCNC(=N)N)C(=O)N[C@@H](CC(C)C)C(=O)NCCOCCOCCNC(=O)CN1CCN(CC(=O)NCCOCCOCCN)CCN(CC(=O)NCCOCCOCCNC(=O)C[C@@H](O)[C@H](CC(C)C)NC(=O)[C@H](C)NC(=O)C[C@H](O)[C@H](CC(C)C)NC(=O)[C@@H](NC(=O)[C@@H](NC(=O)CC(C)C)C(C)C)C(C)C)CCN(CC(=O)NCCOCCOCCN)CC1` [HHY-327, AcWYRGRL-DOTA-Pepstatin A] (I: Ac-WYRGRL / II: Isovaleryl-VV[Sta]A[X2]; linker I:C-II:C via X3) the solubility [3] was > 5920 µg/mL, the pIC50 [4] was 8.68 and the “inhibition of GAG release” value ([5]; 24 hours after stimulation at pH 5.0) was 41%. The “inhibition of GAG release” value ([5]; 48 hours after stimulation at pH 5.0) was “no differentiating effect” and the “effect on acid-stimulated GAG release / degradation (FIG. 3)” value ([5]; pH 5.0) was “very impressive effect”.
AcYRLGRW-DOTA-[Gd3^+] [HHY-341Gd] showed a T1 [1] of 1368 ± 10 ms.

From patent US20170050988A1, “DOTAM DERIVATIVES FOR THERAPEUTIC USE” (priority 2013, published 2017)
